From publication PMC5651818, “VPS18 recruits VPS41 to the human HOPS complex via a RING–RING interaction” (Biochemical Journal, 2017)

Target: T1, His-tagged VPS18 RING domain (residues 842–973) (human, UniProt Q9P253 842-973)
T1 construct: Vector pOPTnH; monomeric by SEC-MALS; also called VPS18 RING H6; VPS18H6; source: E. coli Rosetta2(DE3) pLysS, purified (Ni-NTA, SEC); not shown: LysHis6, C-terminal, kept
T1 sequence (looked up): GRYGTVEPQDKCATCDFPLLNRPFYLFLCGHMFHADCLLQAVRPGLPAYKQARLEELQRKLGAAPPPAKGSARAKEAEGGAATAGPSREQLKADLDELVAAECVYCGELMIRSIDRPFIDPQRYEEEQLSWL
Experiment: SEC-MALS; Superdex 75 10/300, room temperature, 20 mM Tris (pH 7.5), 150 mM NaCl, 0.5 mM EDTA; complex formed from 0.48 mg/ml VPS41 RING and 0.68 mg/ml VPS18 RING H6 on ice for 15 min
Settings: both partners purified

B1: tag-free VPS41 RING domain (residues 778–854) (domain or fragment, human, UniProt P49754 778-854, looked up)
chain: TQMKGVLVDEENICESCLSPILPSDAAKPFSVVVFHCRHMFHKECLPMPSMNSAAQFCNICSAKNRGPGSAILEMKK
notes: monomeric by SEC-MALS; also called untagged VPS41 RING; not shown: GST, N-terminal, cleaved
stoichiometry N: 1
